Results from publication PMC10778931, “Structure–Functional Examination of Novel Ribonucleoside Hydrolase C (RihC) from Limosilactobacillus reuteri LR1” (International Journal of Molecular Sciences, 2023).

Columns and labels:
purified protein = substrate: Nc1ccn([C@@H]2O[C@H](CO)[C@@H](O)[C@H]2O)c(=O)n1; experiment: purified protein; settings: Tris-HCl pH 7.5
[1] = substrate: Nc1ncnc2c1ncn2[C@@H]1O[C@H](CO)[C@@H](O)[C@H]1O; experiment: HILIC-HPLC of released nucleobase, Michaelis-Menten fit; assay type: biochemical, Limosilactobacillus reuteri; settings: Tris-HCl pH 7.5
From the text: (§1) HILIC-HPLC of released nucleobase, Michaelis-Menten fit on LreRihC_HisC

[2] = substrate: O=c1[nH]c(=O)c2ncn([C@@H]3O[C@H](CO)[C@@H](O)[C@H]3O)c2[nH]1; experiment: as above; assay type: biochemical, Limosilactobacillus reuteri; settings: Tris-HCl pH 7.5
From the text: as §1

[3] = substrate: OC[C@H]1O[C@@H](n2cnc3c(O)ncnc32)[C@H](O)[C@@H]1O; experiment: as above; assay type: biochemical, Limosilactobacillus reuteri; settings: Tris-HCl pH 7.5
From the text: as §1

[4] = target: the molecule itself; experiment: SEC; analytical gel filtration on HiLoad 16/600 Superdex 200 pg, 1 mg of sample applied, mass read from a calibration curve (Gel Filtration Calibration Kit HMW)
[5] = substrate: Nc1ncnc2c1ncn2[C@@H]1O[C@H](CO)[C@@H](O)[C@H]1O; experiment: HILIC-HPLC of released nucleobase, Michaelis-Menten fit; assay type: biochemical, Limosilactobacillus reuteri; settings: Tris-HCl pH 7.5; remark: listed apart in the source
From the text: (§2) HILIC-HPLC of released nucleobase, Michaelis-Menten fit on LreRihC_HisN

[6] = substrate: O=c1[nH]c(=O)c2ncn([C@@H]3O[C@H](CO)[C@@H](O)[C@H]3O)c2[nH]1; experiment: as above; assay type: biochemical, Limosilactobacillus reuteri; settings: Tris-HCl pH 7.5; remark: listed apart in the source
From the text: as §2

[7] = substrate: O=c1ccn([C@@H]2O[C@H](CO)[C@@H](O)[C@H]2O)c(=O)[nH]1; experiment: as above; assay type: biochemical, Limosilactobacillus reuteri; settings: Tris-HCl pH 7.5
From the text: as §2

[8] = substrate: OC[C@H]1O[C@@H](n2cnc3c(O)ncnc32)[C@H](O)[C@@H]1O; experiment: as above; assay type: biochemical, Limosilactobacillus reuteri; settings: Tris-HCl pH 7.5; remark: listed apart in the source
From the text: as §2

B1: LreRihC_HisC (Limosilactobacillus reuteri) (protein)
chain: MTTKIIMDTDPGIDDAAALTMAINDPSLDLKLVTTVAGNVTADKTTANALKIIHFFGKDIPVAAGAKQPLIKPFEDAARIHGESGMPGYDFGDDYGKPLDKTAVEALHDAIMAEDEVILVPTGSYTNIALLFSEYPEVKSHIKQIVAMGGSFSGGNMTSAAEFNVFTDPDAAKIMYNAGVPIVTVGLDVTLKALLTADTIEKLGSLNKTGEMLHGLITHYNDGNDQGRPMHDVNTIFYLLHPEAFTTKDMWVDIQTDGPAIGATVGDIRAAYHDGKTNAKVCLDIDAEYFNKWFLEEVSKMK
notes: E. coli BL21(DE3), pET24a(+); tetramer (123 kDa)
- Km (purified protein): 620 ± 60 µM
- kcat (purified protein): 58 ± 6 s⁻¹
- Km [1]: 480 ± 90 µM
- kcat [1]: 65 ± 7 s⁻¹
- Km [2]: 1300 ± 200 µM
- kcat [2]: 40 ± 6 s⁻¹
- Km [3]: 2600 ± 600 µM
- kcat [3]: 18 ± 6 s⁻¹

B2: ribonucleoside hydrolase C from Limosilactobacillus reuteri LR1 with the addition of His-tag to the C-terminus of the enzyme (enzyme, UniProt A5JJT3 1-302, looked up)
chain: MTTKIIMDTDPGIDDAAALTMAINDPSLDLKLVTTVAGNVTADKTTANALKIIHFFGKDIPVAAGAKQPLIKPFEDAARIHGESGMPGYDFGDDYGKPLDKTAVEALHDAIMAEDEVILVPTGSYTNIALLFSEYPEVKSHIKQIVAMGGSFSGGNMTSAAEFNVFTDPDAAKIMYNAGVPIVTVGLDVTLKALLTADTIEKLGSLNKTGEMLHGLITHYNDGNDQGRPMHDVNTIFYLLHPEAFTTKDMWVDIQTDGPAIGATVGDIRAAYHDGKTNAKVCLDIDAEYFNKWFLEEVSKMK
notes: 308 residues and 33.38 kDa with the His-tag; PDB 8QND is the structure of the N-terminally tagged form of the same protein; source: E. coli BL21(DE3), purified (HisTrap FF, desalted on Sephadex G25); not shown: His6, C-terminal, kept
- stoichiometry N [4]: 4

B3: ribonucleoside hydrolase C from Limosilactobacillus reuteri LR1 with the addition of His-tag to the N-terminus of the enzyme (enzyme, UniProt A5JJT3 1-302, looked up)
chain: MTTKIIMDTDPGIDDAAALTMAINDPSLDLKLVTTVAGNVTADKTTANALKIIHFFGKDIPVAAGAKQPLIKPFEDAARIHGESGMPGYDFGDDYGKPLDKTAVEALHDAIMAEDEVILVPTGSYTNIALLFSEYPEVKSHIKQIVAMGGSFSGGNMTSAAEFNVFTDPDAAKIMYNAGVPIVTVGLDVTLKALLTADTIEKLGSLNKTGEMLHGLITHYNDGNDQGRPMHDVNTIFYLLHPEAFTTKDMWVDIQTDGPAIGATVGDIRAAYHDGKTNAKVCLDIDAEYFNKWFLEEVSKMK
notes: Ribonucleoside hydrolase C (RihC) of Limosilactobacillus reuteri LR1, cloned from genomic DNA with primers from the start codon to the stop codon; 308 residues and 33.38 kDa with the His-tag; The residue numbers printed for the crystal structure (D16, D20, D21, loop DGNDQ 228-232) seem to count on the tagged construct (surmised from the primer); Each subunit holds one Ca2+ ion; source: E. coli …
- stoichiometry N [4]: 4

B4: LreRihC_HisN (Limosilactobacillus reuteri) (protein)
chain: TTKIIMDTDPGIDDAAALTMAINDPSLDLKLVTTVAGNVTADKTTANALKIIHFFGKDIPVAAGAKQPLIKPFEDAARIHGESGMPGYDFGDDYGKPLDKTAVEALHDAIMAEDEVILVPTGSYTNIALLFSEYPEVKSHIKQIVAMGGSFSGGNMTSAAEFNVFTDPDAAKIMYNAGVPIVTVGLDVTLKALLTADTIEKLGSLNKTGEMLHGLITHYNDGNDQGRPMHDVNTIFYLLHPEAFTTKDMWVDIQTDGPAIGATVGDIRAAYHDGKTNAKVCLDIDAEYFNKWFLEEVSKMK
notes: E. coli BL21(DE3), pET24a(+); tetramer (121 kDa)
- Km (purified protein): 680 ± 80 µM
- kcat (purified protein): 112 ± 4 s⁻¹
- Km [5]: 420 ± 50 µM
- kcat [5]: 118 ± 4 s⁻¹
- Km [6]: 1200 ± 200 µM
- kcat [6]: 57 ± 8 s⁻¹
- Km [7]: 320 ± 40 µM
- kcat [7]: 167 ± 6 s⁻¹
- Km [8]: 2500 ± 600 µM
- kcat [8]: 30 ± 5 s⁻¹
